Experimental data as given in patent US20140377284A1 (BIOCEROX PRODUCTS B V, published 2014).

T1: human CD134 (full-length, on cells) (human, UniProt P43489 29-277)
T1 sequence: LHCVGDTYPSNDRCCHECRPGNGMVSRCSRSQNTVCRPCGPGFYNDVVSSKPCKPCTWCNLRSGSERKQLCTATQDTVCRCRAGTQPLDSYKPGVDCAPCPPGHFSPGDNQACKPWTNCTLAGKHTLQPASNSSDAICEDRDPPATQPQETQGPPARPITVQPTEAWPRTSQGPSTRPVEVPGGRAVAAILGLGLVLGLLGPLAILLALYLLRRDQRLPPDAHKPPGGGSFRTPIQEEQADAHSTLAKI


Experiments:
[1] = target: T1, human CD134 (full-length, on cells); assay: flow cytometry, PHA-stimulated human CD3+ T lymphocytes
[2] = target: T1, human CD134 (full-length, on cells); assay: flow cytometry, stable CD134 293-F clone no. 23
Description: (§1) Full-length human CD134 (SEQ ID NO. 1) was re-cloned in a pcDNA3.1-derived expression plasmid (see Example 11 (d) below). […] After extensive washing in PBS/BSA/NaN₃, cells were subsequently incubated with 1:200 diluted PE-conjugated goat anti-mouse IgG (Fcγ specific) antibodies (Jackson ImmunoResearch) or with 1:200 diluted PE-conjugated goat anti-human IgG (Fcγ specific) antibodies (Jackson ImmunoResearch) for 30 minutes at 4° C. After extensive washing in PBS/BSA/NaN₃, cells were fixed in 2% formaldehyde in PBS/BSA/NaN₃ for 30 minutes at 4° C. Binding of antibodies was measured using flow cytometry (FACSCalibur; BD Biosciences).

[3] = target: T2, recombinant human CD134:human Fcγ (IgG1) fusion protein (human, UniProt P01857-1 100-330 = IgG part, limits assumed); assay: ELISA, plate-bound CD134:Fc 50 ng/well
T2 construct: domain: Fcγ (IgG1); Bought (R&D Systems); also called rhuCD134
T2 sequence (P01857 other isoform, or with tags, fused parts or gaps limits assumed): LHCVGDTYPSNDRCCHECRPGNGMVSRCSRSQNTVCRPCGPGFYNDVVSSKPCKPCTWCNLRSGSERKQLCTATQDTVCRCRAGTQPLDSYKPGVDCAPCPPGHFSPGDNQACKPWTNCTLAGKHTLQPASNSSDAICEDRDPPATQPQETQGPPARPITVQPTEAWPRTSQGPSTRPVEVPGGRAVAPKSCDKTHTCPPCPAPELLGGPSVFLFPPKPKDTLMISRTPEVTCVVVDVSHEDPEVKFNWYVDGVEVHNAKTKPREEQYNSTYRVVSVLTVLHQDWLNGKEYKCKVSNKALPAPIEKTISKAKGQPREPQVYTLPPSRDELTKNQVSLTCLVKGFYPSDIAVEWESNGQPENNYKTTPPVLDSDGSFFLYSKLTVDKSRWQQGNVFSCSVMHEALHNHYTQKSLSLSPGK
Description: Ninety six-wells flat-bottom ELISA plates (Corning) were coated with 50 ng/well recombinant human CD134:human Fcγ (IgG1) fusion protein (R&D Systems) in PBS o/n at 4° C. After extensive washing in PBS/0.05% Tween 20, plates were blocked in PBS/0.05% Tween 20/1% BSA fraction V (Roche) for 1 hour at RT. […] After extensive washing in PBS/0.05% Tween 20, binding of antibodies was determined with 1:5000 diluted horseradish peroxidase-conjugated goat anti-mouse (Fcγ specific) antibodies (Jackson ImmunoResearch) or with 1:4000 diluted horseradish peroxidase-conjugated goat anti-human κ-specific antibodies (Southern Biotech) for 1 hour at RT, followed by a ready-to-use solution of TMB substrate (Invitrogen) for colorimetric detection. After adding 1 M H₂SO₄, optical densities were measured at, a wavelength of 450 nm (reference wavelength of 655 nm) using a microplate reader (BioRad).

[4] = target: T1, human CD134 (full-length, on cells); assay: cell-based or functional assay
[5] = target: T1, human CD134 (full-length, on cells); assay: competition flow cytometry, stable CD134 293-F clone no. 5; competitor biotinylated mouse 12H3 at 700 ng/mL
Description: Full-length human CD134 (SEQ ID NO1) was re-cloned in a pcDNA3.1-derived expression plasmid (see Example 11 (c) above). […] After extensive washing in PBS/BSA/NaN₃, cells were fixed in 2% formaldehyde in PBS/BSA/NaN₃ for 30 minutes at 4° C.

[6] = target: T1, human CD134 (full-length, on cells); assay: flow cytometry, stable CD134 293-F clone no. 5
Description: as §1

EC50 [2] [mg/L]	EC50 [3] [mg/L]	IC50 [5] [mg/L]	binding result [6]	further results	Molecule
–	–	–	–	EC50 [1]: 2.5 mg/L; saturating concentration [1]: 5 µg/mL	commercially available mouse anti-human CD134 antibody clone ACT35
< 0.2	~0.05	~1.5	–	Replication Index, Treg/Teff ratio 0:1, donor 1 [4]: 13.9; Replication Index, Treg/Teff ratio 0:1, donor 2 [4]: 12.1; Replication Index, Treg/Teff ratio 0:1, donor 3 [4]: 10.2; Replication Index, Treg/Teff ratio 0:1, donor 4 [4]: 10.7; Replication Index, Treg/Teff ratio 0:1, donor 5 [4]: 8.66; Replication Index, Treg/Teff ratio 1:2, donor 1 [4]: 5.33; Replication Index, Treg/Teff ratio 1:2, donor 2 [4]: 5.82; Replication Index, Treg/Teff ratio 1:2, donor 3 [4]: 6; Replication Index, Treg/Teff ratio 1:2, donor 4 [4]: 6.05; Replication Index, Treg/Teff ratio 1:2, donor 5 [4]: 4.71; Replication Index, Treg/Teff ratio 1:4, donor 1 [4]: 5.23; Replication Index, Treg/Teff ratio 1:4, donor 2 [4]: 5.21; Replication Index, Treg/Teff ratio 1:4, donor 3 [4]: 5.23; Replication Index, Treg/Teff ratio 1:4, donor 4 [4]: 5.51; Replication Index, Treg/Teff ratio 1:4, donor 5 [4]: 4.81	humanized IgG4κ anti-human CD134 antibody clone 12H3 version 12H3_VL1VH2 (antibody, V domains shown, Stabilized human IgG4/κ; end of each range computed; also called 12H3_VL1H2; 2H3 VL1VH2 (SF2)) VH: QVQLVQSGAEVKKPGSSVKVSCKASGYTFKDYTMHWVRQAPGQGLEWIGGIYPNNGGSTYNQNFKDRVTLTADKSTSTAYMELSSLRSEDTAVYYCARMGYHGPHLDFDVWGQGTTVTVSS VL: DIQMTQSPSSLSASVGDRVTITCKASQDVGAAVAWYQQKPGKAPKLLIYWASTRHTGVPSRFSGSGSGTDFTLTISSLQPEDFATYYCQQYINYPLTFGGGTKVEIKR
< 0.2	~0.05	~1.5	–	–	humanized IgG4κ anti-human CD134 antibody clone 12H3 version 12H3_VL2VH2 (antibody, V domains shown, Stabilized human IgG4/κ; end of each range computed; also called 12H3_VL2H2) VH: QVQLVQSGAEVKKPGSSVKVSCKASGYTFKDYTMHWVRQAPGQGLEWIGGIYPNNGGSTYNQNFKDRVTLTADKSTSTAYMELSSLRSEDTAVYYCARMGYHGPHLDFDVWGQGTTVTVSS VL: DIQMTQSPSSLSASVGDRVTITCKASQDVGAAVAWYQQKPGKAPKLLIYWASTRHTGVPDRFSGGGSGTDFTLTISSLQPEDFATYYCQQYINYPLTFGGGTKVEIKR
< 0.2	~0.05	~1.5	–	–	humanized IgG4κ anti-human CD134 antibody clone 12H3 version 12H3_VL1VH1 (antibody, V domains shown, Stabilized human IgG4 (Angal et al.)/κ; also called 12H3_VL1H1) VH: QVQLVQSGAEVKKPGSSVKVSCKASGYTFKDYTMHWVRQAPGQGLEWMGGIYPNNGGSTYNQNFKDRVTITADKSTSTAYMELSSLRSEDTAVYYCARMGYHGPHLDFDVWGQGTTVTVSS VL: DIQMTQSPSSLSASVGDRVTITCKASQDVGAAVAWYQQKPGKAPKLLIYWASTRHTGVPSRFSGSGSGTDFTLTISSLQPEDFATYYCQQYINYPLTFGGGTKVEIKR
< 0.2	~0.05	~1.5	–	–	humanized IgG4κ anti-human CD134 antibody clone 12H3 version 12H3_VL2VH3 (antibody, V domains shown, Stabilized human IgG4/κ; end of each range computed) VH: QVQLVQSGAEVKKPGSSVKVSCKASGYTFKDYTMHWVRQAPGQGLEWIGGIYPNNGGSTYNQNFKDRATLTVDKSTSTAYMELSSLRSEDTAVYYCARMGYHGPHLDFDVWGQGTTVTVSS VL: DIQMTQSPSSLSASVGDRVTITCKASQDVGAAVAWYQQKPGKAPKLLIYWASTRHTGVPDRFSGGGSGTDFTLTISSLQPEDFATYYCQQYINYPLTFGGGTKVEIKR
< 0.2	~0.05	~1.5	–	–	humanized IgG4κ anti-human CD134 antibody clone 12H3 version 12H3_VL1VH3 (antibody, V domains shown, Stabilized human IgG4/κ; end of each range computed; also called 12H3_VL1H3) VH: QVQLVQSGAEVKKPGSSVKVSCKASGYTFKDYTMHWVRQAPGQGLEWIGGIYPNNGGSTYNQNFKDRATLTVDKSTSTAYMELSSLRSEDTAVYYCARMGYHGPHLDFDVWGQGTTVTVSS VL: DIQMTQSPSSLSASVGDRVTITCKASQDVGAAVAWYQQKPGKAPKLLIYWASTRHTGVPSRFSGSGSGTDFTLTISSLQPEDFATYYCQQYINYPLTFGGGTKVEIKR
< 0.2	~0.05	~1.5	–	–	humanized IgG4κ anti-human CD134 antibody clone 12H3 version 12H3_VL2VH1 (antibody, V domains shown, Stabilized human IgG4/κ; end of each range computed; also called 12H3_VL2H1) VH: QVQLVQSGAEVKKPGSSVKVSCKASGYTFKDYTMHWVRQAPGQGLEWMGGIYPNNGGSTYNQNFKDRVTITADKSTSTAYMELSSLRSEDTAVYYCARMGYHGPHLDFDVWGQGTTVTVSS VL: DIQMTQSPSSLSASVGDRVTITCKASQDVGAAVAWYQQKPGKAPKLLIYWASTRHTGVPDRFSGGGSGTDFTLTISSLQPEDFATYYCQQYINYPLTFGGGTKVEIKR
–	–	–	–	EC50 [1]: ~2.5 mg/L	mouse anti-human CD134 monoclonal antibody clone 20E5 (antibody, V domains shown, also called m20E5; parental mouse anti-human CD134 antibody clone 20E5) VH: EVQLQQSGPELVKPGASVKMSCKASGYTFTSYVMHWVKQKPGQGLEWIGYINPYNDGTKYNEKFKGKATLTSDKSSSTAYMELSSLTSEDSAVYYCANYYGSSLSMDYWGQGTSVTVSS VL: DIQMTQTTSSLSASLGDRVTISCRASQDISNYLNWYQQKPDGTVKLLIYYTSRLHSGVPSRFSGSGSGTDYSLTISNLEQEDIATYFCQQGNTLPWTFGGGTKLEIKR
–	~0.15	–	binds	–	humanized IgG4κ anti-human CD134 antibody clone 20E5 version 20E5_VL1VH2 (antibody, V domains shown, Stabilized human IgG4/κ; end of each range computed; also called 20E5_VL1H2; VL1H2) VH: QVQLVQSGAEVKKPGASVKVSCKASGYTFTSYVMHWVRQAPGQRLEWIGYINPYNDGTKYNEKFKGRATITSDTSASTAYMELSSLRSEDTAVYYCANYYGSSLSMDYWGQGTLVTVSS VL: DIQMTQSPSSLSASVGDRVTITCRASQDISNYLNWYQQKPGKAPKLLIYYTSRLHSGVPSRFSGSGSGTDYTLTISSLQPEDFATYYCQQGNTLPWTFGQGTKVEIKR
–	~0.1	–	binds	–	humanized IgG4κ anti-human CD134 antibody clone 20E5 version 20E5_VL2VH2 (antibody, V domains shown, Stabilized human IgG4/κ; end of each range computed) VH: QVQLVQSGAEVKKPGASVKVSCKASGYTFTSYVMHWVRQAPGQRLEWIGYINPYNDGTKYNEKFKGRATITSDTSASTAYMELSSLRSEDTAVYYCANYYGSSLSMDYWGQGTLVTVSS VL: DIQMTQSPSSLSASVGDRVTITCRASQDISNYLNWYQQKPGKAVKLLIYYTSRLHSGVPSRFSGSGSGTDYTLTISSLQPEDFATYFCQQGNTLPWTFGQGTKVEIKR
–	~0.1	–	binds	–	humanized IgG4κ anti-human CD134 antibody clone 20E5 version 20E5_VL1VH3 (antibody, V domains shown, Stabilized human IgG4/κ; end of each range computed; also called 20E5_VL1H3; 2-E5_VL1VH3) VH: QVQLVQSGAEVKKPGASVKVSCKASGYTFTSYVMHWVRQAPGQRLEWIGYINPYNDGTKYNEKFKGRATLTSDKSASTAYMELSSLRSEDTAVYYCANYYGSSLSMDYWGQGTLVTVSS VL: DIQMTQSPSSLSASVGDRVTITCRASQDISNYLNWYQQKPGKAPKLLIYYTSRLHSGVPSRFSGSGSGTDYTLTISSLQPEDFATYYCQQGNTLPWTFGQGTKVEIKR
–	~0.1	–	binds	–	humanized IgG4κ anti-human CD134 antibody clone 20E5 version 20E5_VL2VH1 (antibody, V domains shown, Stabilized human IgG4/κ; end of each range computed; also called 20E5_VL2H1) VH: QVQLVQSGAEVKKPGASVKVSCKASGYTFTSYVMHWVRQAPGQRLEWMGYINPYNDGTKYNEKFKGRVTITSDTSASTAYMELSSLRSEDTAVYYCANYYGSSLSMDYWGQGTLVTVSS VL: DIQMTQSPSSLSASVGDRVTITCRASQDISNYLNWYQQKPGKAVKLLIYYTSRLHSGVPSRFSGSGSGTDYTLTISSLQPEDFATYFCQQGNTLPWTFGQGTKVEIKR
–	~0.1	–	binds	–	humanized IgG4κ anti-human CD134 antibody clone 20E5 version 20E5_VL2VH3 (antibody, V domains shown, Stabilized human IgG4/κ; end of each range computed) VH: QVQLVQSGAEVKKPGASVKVSCKASGYTFTSYVMHWVRQAPGQRLEWIGYINPYNDGTKYNEKFKGRATLTSDKSASTAYMELSSLRSEDTAVYYCANYYGSSLSMDYWGQGTLVTVSS VL: DIQMTQSPSSLSASVGDRVTITCRASQDISNYLNWYQQKPGKAVKLLIYYTSRLHSGVPSRFSGSGSGTDYTLTISSLQPEDFATYFCQQGNTLPWTFGQGTKVEIKR
